In the Human Domainome abundance scans (Beltran et al. 2025) one finds abundance fitness data, which are given here for 167 variants.

Sequences and labels used below:
B1: Mineralocorticoid receptor, residues 600 to 675; numbered along this chain, P08235 (parent)
chain: SKICLVCGDEASGCHYGVVTCGSCKVFFKRAVEGQHNYLCAGRNDCIIDKIRRKNCPACRLQKCLQAGMNLGARKS

± gives the uncertainty stated by the source.

This series covers variants of B1. The experiment in a line: abundance fitness (aPCA) (normalised: wild type 0, dead -1); higher = more abundant; growth selection in yeast, the domain comes from the species named. The settings on record: Homo sapiens.
Take Q62E: the abundance fitness was -0.054 ± 0.076.
As for Q62F, the figure is -0.16 ± 0.069; as for Q62Y, -0.121 ± 0.053.
As for Q62N, the figure is 0.033 ± 0.064; as for Q62P, -0.887 ± 0.13.
As for Q62R, the figure is -0.045 ± 0.044; as for S76G, -0.076 ± 0.047.
For S76H, the abundance fitness was -0.051 ± 0.1.
As for S76L, the figure is -0.012 ± 0.042; as for S76K, -0.654 ± 0.5.
In the case of S76W, the abundance fitness was found to be 0.122 ± 0.098.
As for S76V, the figure is -0.173 ± 0.071; as for N44I, -0.342 ± 0.099.
As for N44V, the figure is -0.246 ± 0.042; as for N44K, 0.016 ± 0.049.
As for N44G, the figure is -0.004 ± 0.036; as for N44D, 0.071 ± 0.062; as for K25I, -0.069 ± 0.11.
Turning to K25S, the abundance fitness is -0.033 ± 0.044.
As for K25E, the figure is -0.01 ± 0.051; as for K25F, -0.112 ± 0.099; as for K25D, -0.087 ± 0.075.
As for K25W, the abundance fitness was -0.083 ± 0.053.
Take K25T: the abundance fitness was -0.105 ± 0.057.
As for K25M, the figure is -0.018 ± 0.061; as for K25V, -0.035 ± 0.042; as for G13V, -0.092 ± 0.04.
As for G13P, the figure is -0.157 ± 0.061; as for G13I, -0.146 ± 0.091; as for G13S, -0.033 ± 0.05.
I51D: the abundance fitness was -0.083 ± 0.1.
As for I51E, the figure is -0.048 ± 0.057; as for I51A, -0.018 ± 0.048; as for I51H, 0.062 ± 0.092.
As for I51N, the figure is -0.108 ± 0.068.
For I51R, the abundance fitness was -0.018 ± 0.042.
Take I51G: the abundance fitness was -0.016 ± 0.043.
For the variant D9W, the abundance fitness was -0.214 ± 0.05.
As for D9R, the figure is -0.183 ± 0.042; as for D9H, -0.04 ± 0.13.
As for D9C, the figure is -0.137 ± 0.084.
As to D9N, the abundance fitness was -0.144 ± 0.1.
For D9S, the abundance fitness was -0.102 ± 0.053.
As for D9F, the figure is -0.202 ± 0.1; as for D9L, -0.309 ± 0.05.
As for R74N, the figure is -0.011 ± 0.065; as for R74S, -0.001 ± 0.04; as for R74C, 0.005 ± 0.06.
As for R74G, the figure is -0.022 ± 0.031.
For R74P, the abundance fitness is -0.03 ± 0.055.
As for R74K, the abundance fitness was found to be 0.02 ± 0.061.
As for R43I, the figure is -0.025 ± 0.034.
In the case of R43V, the abundance fitness is -0.038 ± 0.03.
For R43S, the abundance fitness was -0.001 ± 0.027.
As for R43E, the figure is 0.005 ± 0.042.
As for S1R, the abundance fitness was -0.099 ± 0.052.
As for S1G, the figure is -0.087 ± 0.06; as for S1P, -0.13 ± 0.09; as for S1D, -0.406 ± 0.32.
On to S1W, for which the abundance fitness was -0.144 ± 0.073.
As to E10L, the abundance fitness is -0.028 ± 0.043.
As for E10N, the figure is -0.04 ± 0.12; as for E10T, -0.032 ± 0.056; as for I3W, -0.315 ± 0.053.
As for I3C, the figure is -0.172 ± 0.073; as for I3F, -0.04 ± 0.12.
Turning to I3M, the abundance fitness is -0.192 ± 0.054.
Turning to V32N, the abundance fitness is -0.08 ± 0.13.
As for V32M, the figure is 0.114 ± 0.15; as for V32Q, -0.017 ± 0.12; as for V32D, -0.035 ± 0.2.
With N70C, the abundance fitness is -0.154 ± 0.054.
Take N70L: the abundance fitness was -0.089 ± 0.044.
Turning to N70D, the abundance fitness came to 0.014 ± 0.064.
Take N70Q: the abundance fitness is -0.019 ± 0.048.
As for N70F, the figure is -0.07 ± 0.051.
Consider N70I, for which the abundance fitness was -0.02 ± 0.069.
As for A31M, the figure is 0.474 ± 0.49; as for H36N, 0.001 ± 0.042.
Consider H36Y, for which the abundance fitness is -0.043 ± 0.039.
As for H36L, the figure is -0.087 ± 0.028; as for H36D, 0.005 ± 0.041.
As for H36M, the figure is -0.046 ± 0.039; as for K75E, 0.055 ± 0.049; as for K75I, -0.213 ± 0.11.
For K75F, the abundance fitness was -0.167 ± 0.16.
As for K75H, the figure is 0.077 ± 0.093; as for K75S, 0.065 ± 0.047; as for K75T, 0.014 ± 0.07.
As for K75G, the figure is -0.024 ± 0.039.
As for H15N, the figure is -0.092 ± 0.09; as for H15Q, -0.12 ± 0.056.
Regarding H15K, the abundance fitness came out at 0.032 ± 0.063.
As for D49A, the figure is -0.141 ± 0.031; as for D49F, -0.251 ± 0.038; as for A67Y, -0.264 ± 0.3.
As for A67L, the figure is -0.002 ± 0.047; as for A67G, -0.076 ± 0.047; as for A67W, -0.055 ± 0.061.
As for A67F, the figure is -0.121 ± 0.12; as for N37D, -0.02 ± 0.047.
In the case of N37A, the abundance fitness was -0.027 ± 0.034.
As for N37W, the figure is -0.23 ± 0.047.
Take N37K: the abundance fitness is 0.031 ± 0.051.
For G8M, the abundance fitness was -0.062 ± 0.07.
For G8N, the abundance fitness is -0.235 ± 0.14.
Take G8T: the abundance fitness was -0.079 ± 0.072.
Take G8H: the abundance fitness was -0.273 ± 0.16.
As for I48V, the figure is -0.035 ± 0.038.
Regarding I48F, the abundance fitness was -0.104 ± 0.044.
As for I48E, the figure is -0.002 ± 0.056; as for I48A, -0.074 ± 0.037; as for I48W, -0.072 ± 0.058.
As for I48K, the figure is -0.082 ± 0.06; as for I48L, -0.077 ± 0.03.
I48M: the abundance fitness came out at 0.021 ± 0.048.
With C21M, the abundance fitness is -0.969 ± 0.2.
Turning to C21Q, the abundance fitness is -0.567 ± 0.17.
As for K54V, the figure is -0.065 ± 0.046; as for K54L, -0.106 ± 0.046.
As for M69A, the figure is -0.058 ± 0.043; as for M69D, -0.293 ± 0.073; as for M69Q, -0.262 ± 0.072.
As for M69E, the figure is -0.307 ± 0.058; as for M69S, -0.341 ± 0.059.
On to C4L, for which the abundance fitness was -0.768 ± 0.1.
C4Y: the abundance fitness was -0.99 ± 0.42.
Take C4D: the abundance fitness is -0.549 ± 0.15.
As for G72D, the figure is 0.029 ± 0.059.
As for G72E, the figure is -0.036 ± 0.055; as for G72L, -0.021 ± 0.037; as for A11W, -0.22 ± 0.056.
For the variant A11S, the abundance fitness was -0.044 ± 0.044.
As for A11M, the figure is -0.135 ± 0.074.
As for A11N, the figure is 0.031 ± 0.078; as for A11C, -0.123 ± 0.094; as for A11G, -0.043 ± 0.039.
As for L61R, the figure is -0.205 ± 0.039; as for L61E, -0.214 ± 0.054; as for L61A, -0.315 ± 0.056.
Consider L61F, for which the abundance fitness is -0.031 ± 0.085.
As for L61S, the figure is -0.471 ± 0.059; as for L61W, -0.004 ± 0.042; as for F27D, -0.676 ± 0.19.
As for F27A, the abundance fitness is -0.434 ± 0.057.
As for F27W, the figure is -0.223 ± 0.055.
As for F27T, the figure is -0.638 ± 0.11.
As for F27C, the figure is -0.801 ± 0.2; as for F27Y, -0.33 ± 0.093; as for Q35P, -0.013 ± 0.047.
As to Q35I, the abundance fitness was -0.015 ± 0.056.
Take Q35W: the abundance fitness is -0.205 ± 0.057.
In the case of Q35C, the abundance fitness was -0.073 ± 0.05.
As to Q35V, the abundance fitness was -0.079 ± 0.035.
As for Q35D, the figure is 0.056 ± 0.057.
Consider K29D, for which the abundance fitness amounted to 0.007 ± 0.15.
As for K29V, the figure is -0.095 ± 0.055.
As for K29S, the figure is -0.04 ± 0.057; as for K29M, -0.04 ± 0.056; as for Y38H, -0.059 ± 0.048.
As for Y38L, the figure is -0.054 ± 0.039; as for Y38T, -0.051 ± 0.04.
On to Y38W, for which the abundance fitness was -0.047 ± 0.084.
As for Y38N, the figure is -0.098 ± 0.039.
As for Y38Q, the figure is -0.118 ± 0.077.
Take Y38K: the abundance fitness was -0.026 ± 0.067.
As for Y38I, the figure is -0.069 ± 0.046.
